{"source": "IntAct's records for PubMed 31515488", "parents": {"B1": {"name": "Angiomotin (Homo sapiens), Q4VCS5 (parent)", "chain": "MRNSEEQPSGGTTVLQRLLQEQLRYGNPSENRSLLAIHQQATGNGPPFPSGSGNPGPQSDVLSPQDHHQQLVAHAARQEPQGQEIQSENLIMEKQLSPRMQNNEELPTYEEAKVQSQYFRGQQHASVGAAFYVTGVTNQKMRTEGRPSVQRLNPGKMHQDEGLRDLKQGHVRSLSERLMQMSLATSGVKAHPPVTSAPLSPPQPNDLYKNPTSSSEFYKAQGPLPNQHSLKGMEHRGPPPEYPFKGMPPQSVVCKPQEPGHFYSEHRLNQPGRTEGQLMRYQHPPEYGAARPAQDISLPLSARNSQPHSPTSSLTSGGSLPLLQSPPSTRLSPARHPLVPNQGDHSAHLPRPQQHFLPNQAHQGDHYRLSQPGLSQQQQQQQQQHHHHHHHQQQQQQQPQQQPGEAYSAMPRAQPSSASYQPVPADPFAIVSRAQQMVEILSDENRNLRQELEGCYEKVARLQKVETEIQRVSEAYENLVKSSSKREALEKAMRNKLEGEIRRMHDFNRDLRERLETANKQLAEKEYEGSEDTRKTISQLFAKNKESQREKEKLEAELATARSTNEDQRRHIEIRDQALSNAQAKVVKLEEELKKKQVYVDKVEKMQQALVQLQAACEKREQLEHRLRTRLERELESLRIQQRQGNCQPTNVSEYNAAALMELLREKEERILALEADMTKWEQKYLEENVMRHFALDAAATVAAQRDTTVISHSPNTSYDTALEARIQKEEEEILMANKRCLDMEGRIKTLHAQIIEKDAMIKVLQQRSRKEPSKTEQLSCMRPAKSLMSISNAGSGLLSHSSTLTGSPIMEEKRDDKSWKGSLGILLGGDYRAEYVPSTPSPVPPSTPLLSAHSKTGSRDCSTQTERGTESNKTAAVAPISVPAPVAAAATAAAITATAATITTTMVAAAPVAVAAAAAPAAAAAPSPATAAATAAAVSPAAAGQIPAAASVASAAAVAPSAAAAAAVQVAPAAPAPVPAPALVPVPAPAAAQASAPAQTQAPTSAPAVAPTPAPTPTPAVAQAEVPASPATGPGPHRLSIPSLTCNPDKTDGPVFHSNTLERKTPIQILGQEPDAEMVEYLI", "partner": "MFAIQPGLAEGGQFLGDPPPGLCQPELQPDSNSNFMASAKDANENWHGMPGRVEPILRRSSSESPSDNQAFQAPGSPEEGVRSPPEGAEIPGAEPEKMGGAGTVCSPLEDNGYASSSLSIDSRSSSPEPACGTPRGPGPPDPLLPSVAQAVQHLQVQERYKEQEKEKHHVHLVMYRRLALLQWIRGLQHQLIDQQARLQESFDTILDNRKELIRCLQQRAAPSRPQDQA"}, "B2": {"name": "Homeobox protein VENTX (Homo sapiens), O95231 (parent)", "chain": "MRLSSSPPRGPQQLSSFGSVDWLSQSSCSGPTHTPRPADFSLGSLPGPGQTSGAREPPQAVSIKEAAGSSNLPAPERTMAGLSKEPNTLRAPRVRTAFTMEQVRTLEGVFQHHQYLSPLERKRLAREMQLSEVQIKTWFQNRRMKHKRQMQDPQLHSPFSGSLHAPPAFYSTSSGLANGLQLLCPWAPLSGPQALMLPPGSFWGLCQVAQEALASAGASCCGQPLASHPPTPGRPSLGPALSTGPRGLCAMPQTGDAF"}, "B3": {"name": "Rhophilin-1 (Homo sapiens), Q8TCX5 (parent)", "chain": "MILEERPDGAGAGEESPRLQGCDSLTQIQCGQLQSRRAQIHQQIDKELQMRTGAENLYRATSNNRVRETVALELSYVNSNLQLLKEELEELSGGVDPGRHGSEAVTVPMIPLGLKETKELDWSTPLKELISVHFGEDGASYEAEIRELEALRQAMRTPSRNESGLELLTAYYNQLCFLDARFLTPARSLGLFFHWYDSLTGVPAQQRALAFEKGSVLFNIGALHTQIGARQDRSCTEGARRAMEAFQRAAGAFSLLRENFSHAPSPDMSAASLCALEQLMMAQAQECVFEGLSPPASMAPQDCLAQLRLAQEAAQVAAEYRLVHRTMAQPPVHDYVPVSWTALVHVKAEYFRSLAHYHVAMALCDGSPATEGELPTHEQVFLQPPTSSKPRGPVLPQELEERRQLGKAHLKRAILGQEEALRLHALCRVLREVDLLRAVISQTLQRSLAKYAELDREDDFCEAAEAPDIQPKTHQKPEARMPRLSQGKGPDIFHRLGPLSVFSAKNRWRLVGPVHLTRGEGGFGLTLRGDSPVLIAAVIPGSQAAAAGLKEGDYIVSVNGQPCRWWRHAEVVTELKAAGEAGASLQVVSLLPSSRLPSLGDRRPVLLGPRGLLRSQREHGCKTPASTWASPRPLLNWSRKAQQGKTGGCPQPCAPVKPAPPSSLKHPGWP"}, "B4": {"name": "Serine/threonine-protein kinase PAK 5 (Homo sapiens), Q9P286 (parent)", "chain": "MFGKKKKKIEISGPSNFEHRVHTGFDPQEQKFTGLPQQWHSLLADTANRPKPMVDPSCITPIQLAPMKTIVRGNKPCKETSINGLLEDFDNISVTRSNSLRKESPPTPDQGASSHGPGHAEENGFITFSQYSSESDTTADYTTEKYREKSLYGDDLDPYYRGSHAAKQNGHVMKMKHGEAYYSEVKPLKSDFARFSADYHSHLDSLSKPSEYSDLKWEYQRASSSSPLDYSFQFTPSRTAGTSGCSKESLAYSESEWGPSLDDYDRRPKSSYLNQTSPQPTMRQRSRSGSGLQEPMMPFGASAFKTHPQGHSYNSYTYPRLSEPTMCIPKVDYDRAQMVLSPPLSGSDTYPRGPAKLPQSQSKSGYSSSSHQYPSGYHKATLYHHPSLQSSSQYISTASYLSSLSLSSSTYPPPSWGSSSDQQPSRVSHEQFRAALQLVVSPGDPREYLANFIKIGEGSTGIVCIATEKHTGKQVAVKKMDLRKQQRRELLFNEVVIMRDYHHDNVVDMYSSYLVGDELWVVMEFLEGGALTDIVTHTRMNEEQIATVCLSVLRALSYLHNQGVIHRDIKSDSILLTSDGRIKLSDFGFCAQVSKEVPKRKSLVGTPYWMAPEVISRLPYGTEVDIWSLGIMVIEMIDGEPPYFNEPPLQAMRRIRDSLPPRVKDLHKVSSVLRGFLDLMLVREPSQRATAQELLGHPFLKLAGPPSCIVPLMRQYRHH", "partner": "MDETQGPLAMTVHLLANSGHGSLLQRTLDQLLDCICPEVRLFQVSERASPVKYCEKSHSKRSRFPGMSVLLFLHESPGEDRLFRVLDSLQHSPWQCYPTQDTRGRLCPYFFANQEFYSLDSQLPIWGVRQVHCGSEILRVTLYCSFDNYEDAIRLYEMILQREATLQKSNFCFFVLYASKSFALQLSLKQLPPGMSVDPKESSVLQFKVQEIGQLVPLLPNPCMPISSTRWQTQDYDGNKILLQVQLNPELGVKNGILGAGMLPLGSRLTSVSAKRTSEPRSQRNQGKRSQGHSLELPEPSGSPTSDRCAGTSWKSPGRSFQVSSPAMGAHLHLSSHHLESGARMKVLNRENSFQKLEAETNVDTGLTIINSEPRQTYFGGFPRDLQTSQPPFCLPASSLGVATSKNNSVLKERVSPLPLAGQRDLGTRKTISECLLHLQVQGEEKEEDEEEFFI"}, "B5": {"name": "Late cornified envelope protein 1B (Homo sapiens), Q5T7P3 (parent)", "chain": "MSCQQNQQQCQPPPKCIPKCPPKCLTPRCPPKCPPKCPPVSSCCSVSSGGCCGSSSGGSCGSSSGGCCSSGGGGCCLSHHRRRRSHCHRPQSSGCCSQPSGGSSCCGGGSGQHSGGCC", "partner": "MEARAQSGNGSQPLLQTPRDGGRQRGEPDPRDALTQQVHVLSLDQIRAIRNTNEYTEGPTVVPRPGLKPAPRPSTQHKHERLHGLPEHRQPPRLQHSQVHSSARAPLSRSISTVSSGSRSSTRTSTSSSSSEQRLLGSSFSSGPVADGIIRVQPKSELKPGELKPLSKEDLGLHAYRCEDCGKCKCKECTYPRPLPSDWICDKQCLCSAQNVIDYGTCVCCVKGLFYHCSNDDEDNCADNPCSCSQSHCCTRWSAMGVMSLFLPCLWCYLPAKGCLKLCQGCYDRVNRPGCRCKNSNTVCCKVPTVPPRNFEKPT"}, "B6": {"name": "Ligand of Numb protein X 2 (Homo sapiens), Q8N448 (parent)", "chain": "MGTTSDEMVSVEQTSSSSLNPLCFECGQQHWTRENHLYNYQNEVDDDLVCHICLQPLLQPLDTPCGHTFCYKCLRNFLQEKDFCPLDRKRLHFKLCKKSSILVHKLLDKLLVLCPFSSVCKDVMQRCDLEAHLKNRCPGASHRRVALERRKTSRTQAEIENENGPTLLDPAGTLSPEADCLGTGAVPVERHLTSASLSTWSEEPGLDNPAFEESAGADTTQQPLSLPEGEITTIEIHRSNPYIQLGISIVGGNETPLINIVIQEVYRDGVIARDGRLLAGDQILQVNNYNISNVSHNYARAVLSQPCNTLHLTVLRERRFGNRAHNHSDSNSPREEIFQVALHKRDSGEQLGIKLVRRTDEPGVFILDLLEGGLAAQDGRLSSNDRVLAINGHDLKYGTPELAAQIIQASGERVNLTIARPGKPQPGNTIREAGNHSSSSQHHTPPPYYSRPSSHKDLTQCVTCQEKHITVKKEPHESLGMTVAGGRGSKSGELPIFVTSVPPHGCLARDGRIKRGDVLLNINGIDLTNLSHSEAVAMLKASAASPAVALKALEVQIVEEATQNAEEQPSTFSENEYDASWSPSWVMWLGLPSTLHSCHDIVLRRSYLGSWGFSIVGGYEENHTNQPFFIKTIVLGTPAYYDGRLKCGDMIVAVNGLSTVGMSHSALVPMLKEQRNKVTLTVICWPGSLV", "partner": "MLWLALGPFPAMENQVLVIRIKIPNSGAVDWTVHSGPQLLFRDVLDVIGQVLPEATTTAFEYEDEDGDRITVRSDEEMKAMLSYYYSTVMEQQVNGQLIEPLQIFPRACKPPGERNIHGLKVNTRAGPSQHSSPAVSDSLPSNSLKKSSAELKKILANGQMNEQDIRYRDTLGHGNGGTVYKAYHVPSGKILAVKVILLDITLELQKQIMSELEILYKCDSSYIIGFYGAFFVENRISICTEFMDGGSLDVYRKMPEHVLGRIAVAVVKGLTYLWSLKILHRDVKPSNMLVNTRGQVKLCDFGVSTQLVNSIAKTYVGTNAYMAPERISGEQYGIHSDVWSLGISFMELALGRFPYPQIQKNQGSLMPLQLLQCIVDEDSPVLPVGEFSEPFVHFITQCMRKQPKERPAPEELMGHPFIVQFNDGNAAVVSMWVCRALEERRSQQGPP"}, "B7": {"name": "Cyclin-D1-binding protein 1 (Homo sapiens), O95273 (parent)", "chain": "MASATAPAAAVPTLASPLEQLRHLAEELRLLLPRVRVGEAQETTEEFNREMFWRRLNEAAVTVSREATTLTIVFSQLPLPSPQETQKFCEQVHAAIKAFIAVYYLLPKDQGITLRKLVRGATLDIVDGMAQLMEVLSVTPTQSPENNDLISYNSVWVACQQMPQIPRDNKAAALLMLTKNVDFVKDAHEEMEQAVEECDPYSGLLNDTEENNSDNHNHEDDVLGFPSNQDLYWSEDDQELIIPCLALVRASKACLKKIRMLVAENGKKDQVAQLDDIVDISDEISPSVDDLALSIYPPMCHLTVRINSAKLVSVLKKALEITKASHVTPQPEDSWIPLLINAIDHCMNRIKELTQSELEL", "partner": "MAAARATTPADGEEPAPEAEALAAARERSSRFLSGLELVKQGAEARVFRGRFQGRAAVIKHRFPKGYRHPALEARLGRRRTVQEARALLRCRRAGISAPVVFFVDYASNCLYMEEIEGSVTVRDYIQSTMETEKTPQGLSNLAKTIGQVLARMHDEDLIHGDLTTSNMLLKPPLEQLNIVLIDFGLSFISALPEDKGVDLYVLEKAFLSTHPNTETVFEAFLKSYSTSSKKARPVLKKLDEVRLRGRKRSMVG"}}}
{"variants_of": "B1", "settings": "with ca216_human C1orf216, Q8TAB5"}
{"variant": "T899A", "effect of a mutation on the interaction": "with no effect"}
{"variants_of": "B2", "settings": "with rbpms_human RBPMS"}
{"variant": "L42P", "effect of a mutation on the interaction": "with no effect"}
{"variant": "A226E", "effect of a mutation on the interaction": "with no effect"}
{"variant": "M251V", "effect of a mutation on the interaction": "with no effect"}
{"variants_of": "B3", "settings": "with mtus2_human MTUS2, Q5JR59"}
{"variant": "A536T", "effect of a mutation on the interaction": "with no effect"}
{"variants_of": "B4", "settings": "with FAM124B"}
{"variant": "R335P", "effect of a mutation on the interaction": "with no effect"}
{"variants_of": "B5", "settings": "with spy2_human SPRY2, O43597"}
{"variant": "C51Y", "effect of a mutation on the interaction": "with no effect"}
{"variant": "G108E", "effect of a mutation on the interaction": "with no effect"}
{"variant": "H113Q", "effect of a mutation on the interaction": "with no effect"}
{"variants_of": "B6", "settings": "with mp2k5_human MAP2K5, Q13163"}
{"variant": "S198P", "effect of a mutation on the interaction": "with no effect"}
{"variants_of": "B7", "settings": "with prpk_human TP53RK"}
{"variant": "I277T", "effect of a mutation on the interaction": "disrupting interaction strength"}
